# T1: IFNAR1 (Interferon alpha receptor-1) (human, UniProt P17181 28-557)
# T1 sequence (looked up): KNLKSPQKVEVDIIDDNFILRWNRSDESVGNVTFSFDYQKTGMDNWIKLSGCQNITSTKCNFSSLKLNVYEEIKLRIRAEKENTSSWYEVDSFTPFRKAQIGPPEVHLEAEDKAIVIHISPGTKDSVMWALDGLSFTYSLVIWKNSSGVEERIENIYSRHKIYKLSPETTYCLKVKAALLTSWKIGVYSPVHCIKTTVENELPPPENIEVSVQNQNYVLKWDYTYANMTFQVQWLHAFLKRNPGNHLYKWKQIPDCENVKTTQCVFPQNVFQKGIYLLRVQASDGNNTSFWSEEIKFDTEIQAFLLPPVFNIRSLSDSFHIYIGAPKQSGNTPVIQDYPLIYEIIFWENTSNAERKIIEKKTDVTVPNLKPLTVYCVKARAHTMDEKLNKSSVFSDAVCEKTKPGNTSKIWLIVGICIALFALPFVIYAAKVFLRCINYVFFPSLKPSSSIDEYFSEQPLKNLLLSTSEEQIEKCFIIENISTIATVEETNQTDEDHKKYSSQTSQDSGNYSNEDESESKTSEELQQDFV
# What was measured:
# [1] = target: T1, IFNAR1 (Interferon alpha receptor-1); experiment: cell-based or functional assay
# [2] = target: T1, IFNAR1 (Interferon alpha receptor-1); experiment: live-cell confocal fluorescence imaging of IFNAR1-expressing THP-1 cells, 1 µg/mL, stained on ice, FcR blocked
# Experimental: Reaction mixtures were purified from unincorporated fluorescent molecules using size-exclusion mini-columns provided in the kit. IFNAR1-expressing THP-1 cells were maintained in suspension using RPMI growth medium containing 10% FBS, and seeded in a fresh growth medium at 2×10^5 cells/mL overnight prior to the experiments. On the day of experiments, THP-1 cells were washed and resuspended to a concentration of 3×10⁶ cells/mL.
# Cell suspensions were first stained for 10-20 min with cytosol dye, CFSE, from Invitrogen (Life Technologies Corp, Carlsbad, Calif.) in a CO₂ incubator at 37° C. Excess CFSE was removed by two washes with 1×PBS. […] Following the removal of unincorporated antibodies by centrifugation, cells were resuspended to initial volumes, and dispensed into the wells of 384-well imaging plates.
"IC50 (nM), bootstrap median [1] [nM]","IC50 (nM): Potency, MEDI-546 concentration corresponding to half-maximum inhibition of GS production [1] [nM]",binding result [2],Binder
0.772,0.978,,"MEDI-546 (antibody, human IgG1, V domains shown) VH: EVQLVQSGAEVKKPGESLKISCKGSGYIFTNYWIAWVRQMPGKCLESMGIIYPGDSDIRYSPSFQGQVTISADKSITTAYLQWSSLKASDTAMYYCARHDIEGFDYWGRGTLVTVSS VL: EIVLTQSPGTLSLSPGERATLSCRASQSVSSSFFAWYQQKPGQAPRLLIYGASSRATGIPDRLSGSGSGTDFTLTITRLEPEDFAVYYCQQYDSSAITFGQGTRLEIK"
,,binds,"MEDI-546-Alexa647 (antibody, human IgG1, V domains shown, Alexa647 dye conjugated to the antibody (sites and chain not stated)) VH: EVQLVQSGAEVKKPGESLKISCKGSGYIFTNYWIAWVRQMPGKCLESMGIIYPGDSDIRYSPSFQGQVTISADKSITTAYLQWSSLKASDTAMYYCARHDIEGFDYWGRGTLVTVSS VL: EIVLTQSPGTLSLSPGERATLSCRASQSVSSSFFAWYQQKPGQAPRLLIYGASSRATGIPDRLSGSGSGTDFTLTITRLEPEDFAVYYCQQYDSSAITFGQGTRLEIK"
